Assay results from publication doi:10.1101/2025.08.22.671816 (bioRxiv, 2025).
Where no end group is shown, it is not given here.

Molecular target: T1, mCerulean-tagged GIPC (human, UniProt O14908 1-333)
T1 sequence (looked up): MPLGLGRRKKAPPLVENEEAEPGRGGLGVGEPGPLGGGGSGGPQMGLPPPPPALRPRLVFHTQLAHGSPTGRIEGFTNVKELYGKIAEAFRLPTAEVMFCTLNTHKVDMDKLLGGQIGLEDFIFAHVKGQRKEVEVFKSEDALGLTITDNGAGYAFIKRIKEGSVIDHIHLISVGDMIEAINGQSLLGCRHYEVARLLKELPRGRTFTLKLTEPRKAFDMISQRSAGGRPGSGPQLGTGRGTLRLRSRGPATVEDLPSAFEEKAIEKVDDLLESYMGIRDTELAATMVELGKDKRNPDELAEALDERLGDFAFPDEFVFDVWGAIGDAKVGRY
Assay: FRET or BRET

- binding result: binds
B1: mCitrine-tagged GIPR C-tail, wild-type (domain or fragment, human, UniProt P48546 422-466, looked up)
chain: QLPERAFRALPSGSGPGEVPTSRGLSSGTLPGPGNEASRELESYC
modifications: also: mCitrine-tagged
